Experimental data taken from US20240400703A1 (Genmab, published 2024).
“And” between values parts separate entries of the source, which are not always exact repeats. Equal values may be shown once.

Legend:
[1] = target: T1, human OX40 expressed on cells (human, UniProt P43489 29-277); assay: flow cytometry, activated human CD4+ T cells, donor 3
T1 construct: also called CD134; TNFRSF4
T1 sequence: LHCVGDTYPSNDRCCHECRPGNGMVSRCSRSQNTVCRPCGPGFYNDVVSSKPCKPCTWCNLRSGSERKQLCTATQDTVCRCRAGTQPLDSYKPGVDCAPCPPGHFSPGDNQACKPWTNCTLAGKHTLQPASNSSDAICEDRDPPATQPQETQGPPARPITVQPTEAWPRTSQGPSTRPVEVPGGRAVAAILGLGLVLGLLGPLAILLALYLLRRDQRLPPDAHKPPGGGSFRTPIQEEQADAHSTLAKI
Method: (§1) Healthy human donor PBMCs were purified essentially as described in Example 7. The cell concentration was adjusted to 2×10⁶ cells per mL (final concentration) in assay medium and plated in 6-well plates (Greiner, cat. no. 657160). PBMCs were stimulated with 0.3 μg/mL anti-CD3 ([…] Technologies, cat. no. 60011) and 0.5 μg/mL anti-CD28 antibodies (BioLegend, cat. no. 302934) and cultured for two days at 37° C., 5% CO₂. Next, the PBMCs were harvested, counted and brought to a concentration of 2×10⁶ cells per mL in FACS buffer 1 (DPBS with 2% heat-inactivated FBS and 2 mM ethylenediaminetetraacetic acid [EDTA]). […] After 60 min at RT, the cells were prepared for flow cytometric analyses. To this end, the cells were washed twice with 150 μL FACS buffer 1 and 30 μL/well cell-surface antibody mix (Table 9) in FACS buffer 1 containing antibody against human Fcγ antibody (Table 9) and fixable viability dye eFluor780 (1:1,500) was added. The staining procedures were carried out at 4° C. for 15-20 min protected from light. Stained cells were washed twice with 120-150 μL FACS buffer 1 (5 min, 460×g, RT) and resuspended in 60-100 μL FACS buffer 1 for direct flow cytometric analyses. Flow cytometric data were acquired on a FACSymphony A3 and analyzed with FlowJo software.

[2] = target: T1, human OX40 expressed on cells; assay: flow cytometry, activated human CD8+ T cells, donor 1
Method: as §1

[3] = target: T1, human OX40 expressed on cells; assay: flow cytometry, activated human CD8+ T cells, mean of 3 donors
Method: as §1

[4] = target: T2, mouse OX40 expressed on ExpiCHO-S cells (mouse, UniProt P47741 20-272); assay: flow cytometry, transfected ExpiCHO-S cells, gMFI (PE)
T2 construct: full-length entry; also called OX40mm; wild-type mouse OX40
T2 sequence: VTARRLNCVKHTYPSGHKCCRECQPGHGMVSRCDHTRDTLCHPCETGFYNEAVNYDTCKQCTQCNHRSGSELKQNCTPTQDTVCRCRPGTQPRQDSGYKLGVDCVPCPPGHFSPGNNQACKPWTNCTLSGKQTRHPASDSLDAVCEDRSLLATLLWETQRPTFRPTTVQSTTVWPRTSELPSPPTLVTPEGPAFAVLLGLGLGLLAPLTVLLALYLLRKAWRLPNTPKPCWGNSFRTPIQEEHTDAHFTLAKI

[5] = target: T1, human OX40 expressed on cells; assay: flow cytometry, OX40-transfected HEK293F cells, gMFI (PE)
Method: (§2) Transfected cells were seeded in 96-well plates (30,000 cells/well; ThermoFisher, cat. no. 163320) for sequential incubations, with washing steps in between using fluorescence-activated cell sorting (FACS) buffer 1 (phosphate buffered saline [PBS; Lonza, cat. no. BE17-517Q] supplemented with 0.1% bovine serum albumin [BSA; Roche, cat. no. 10735086001] and 0.02% sodium azide [NaN₃; Bio-World, cat. no. 41920044-3]) supplemented with 2 mM ethylenediaminetetraacetic acid (EDTA; Sigma-Aldrich, cat. no. 03690). […] Cells were then washed using EDTA-supplemented FACS buffer 1, resuspended in a 30 μL solution of viability marker ToPro-3 (Invitrogen, cat. no. T3605, diluted 1:10,000) in EDTA-supplemented FACS buffer 1, and subsequently analyzed on an iQue® 3 flow cytometer (Satorius). Data were analyzed using FlowJo software and were visualized using GraphPad Prism.

[6] = target: T3, cynomolgus monkey OX40 expressed on HEK293F cells (cynomolgus monkey (Macaca fascicularis), UniProt P43489 29-277 (human entry)); assay: as above
T3 construct: full-length entry
T3 chain: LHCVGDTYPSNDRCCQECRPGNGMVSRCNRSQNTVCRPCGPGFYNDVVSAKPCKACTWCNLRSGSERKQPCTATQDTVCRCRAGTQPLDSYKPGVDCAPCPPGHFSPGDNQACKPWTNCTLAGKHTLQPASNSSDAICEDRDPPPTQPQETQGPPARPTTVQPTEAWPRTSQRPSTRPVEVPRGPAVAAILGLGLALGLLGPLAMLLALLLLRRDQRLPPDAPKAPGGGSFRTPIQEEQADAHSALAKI
Method: as §2

[7] = target: T1, human OX40 expressed on cells; assay: flow cytometry, activated human CD4+ T cells, with 2 µg/mL sOX40L, n=3
Method: (§3) Stimulated PBMCs were pelleted, resuspended in FACS buffer 2 (DPBS with 2% heat-inactivated FBS [Sigma-Aldrich, cat. no. F7524] and 2 mM EDTA [Sigma-Aldrich, cat. no. 03690]), and seeded (100,000 cells/well) in round-bottom 96-well plates (VWR International GmbH, cat. no. 734-197). […] Next, cells were washed twice in FACS buffer, and incubated with 30 μL of the antibody panel described in Table 11 diluted in FACS buffer 2 containing 1:1,500 Fixable Viability Stain eFluor 780 at 4° C. for 20 min, protected from light. The cells were subsequently washed twice with 120-150 μL FACS buffer 2 and measured on a BD FACSCelesta flow cytometer using a BD High Throughput sampler and subsequent analysis was done using FlowJo software.

[8] = target: T1, human OX40 expressed on cells; assay: flow cytometry, activated human CD8+ T cells, with 2 µg/mL sOX40L, n=3
Method: as §3

- EC50 [1]: 0.0187 µg/mL
- EC50 [2]: 0.0329 µg/mL
- EC50 [3]: 0.0236 µg/mL
- binding result [4]: no binding (tested: 50 µg/mL)
- EC50 (read off the curve) [5]: ~0.05 µg/mL
- EC50 (read off the curve) [6]: ~0.05 µg/mL
- EC50 [7]: 0.054 µg/mL and 0.359 nM
- EC50 [8]: 0.038 µg/mL and 0.254 nM
B1: IgG1-CD134-003-HC6LC2-P329R-E345R (antibody)
heavy: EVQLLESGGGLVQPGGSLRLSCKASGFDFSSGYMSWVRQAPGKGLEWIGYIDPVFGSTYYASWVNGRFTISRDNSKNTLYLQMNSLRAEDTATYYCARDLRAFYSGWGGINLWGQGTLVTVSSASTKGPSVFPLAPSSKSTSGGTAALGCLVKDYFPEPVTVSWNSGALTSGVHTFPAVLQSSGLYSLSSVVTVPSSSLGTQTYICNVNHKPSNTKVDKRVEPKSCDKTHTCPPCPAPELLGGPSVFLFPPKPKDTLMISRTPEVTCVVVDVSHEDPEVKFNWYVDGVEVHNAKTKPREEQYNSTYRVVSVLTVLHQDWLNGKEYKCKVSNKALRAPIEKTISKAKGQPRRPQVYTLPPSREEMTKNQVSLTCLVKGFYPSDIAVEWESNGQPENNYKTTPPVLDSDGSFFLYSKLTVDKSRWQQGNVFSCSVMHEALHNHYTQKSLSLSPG
light: AAVLTQSPSSLSASVGDRVTITCQSSQIVVNNNFLSWYQQKPGKAPKLLIYDASNLASGVPDRFSGSGSGTDFTFTISSLQPEDIATYYCLGGYDDDAENAFGGGTKVEIKRTVAAPSVFIFPPSDEQLKSGTASVVCLLNNFYPREAKVQWKVDNALQSGNSQESVTEQDSKDSTYSLSSTLTLSKADYEKHKVYACEVTHQGLSSPVTKSFNRGEC
notes: humanized; human IgG1 with P329R and E345R (Eu numbering), kappa; also called IgG1-CD134-003-HC6LC2-RR
